Source: paper PMC6744468, “Selective autophagy maintains centrosome integrity and accurate mitosis by turnover of centriolar satellites” (Nature Communications, 2019)

B1: Human PCM1 LIR-contained peptide (peptide)
peptide: SDEEDFVKVEDLPLKLTIY
notes: PCM1, human, residues 1958-1976 with the core LIR FVKV; also called PCM1 LIR peptide; PCM LIR peptide; source: synthetic peptide, bought: GenScript Inc
B2: Human PCM1 LIR-contained peptide (residues 1958-1976) (peptide)
peptide: SDEEDFVKVEDLPLKLTIY
notes: pericentriolar material 1 (PCM1), human, residues 1958-1976; core LIR FVKV; also called PCM1 LIR peptide; PCM LIR peptide; source: synthetic peptide, bought: GenScript Inc

Assays:
Details in all cases: both partners purified
LC3B (ITC sample) = LC3B (ITC sample) (human, UniProt Q9GZQ8 1-120); experiment: ITC; 0.4 mM PCM1 LIR peptide titrated into 0.025 mM LC3 and GABARAP proteins in 21 steps, 25 °C, 50 mM Tris-HCl pH 7.4, 100 mM NaCl, one-site binding model
[1] = biological target: T1, GABARAP Y25H (ITC sample) (human, UniProt O95166 1-117, Y25 in GABARAP to H); experiment: as above
T1 construct: GABARAP, human, with Y25H, purified protein for ITC; also called mutation of invariant Y25 in GABARAP to H
T1 sequence (O95166 whole entry Y25H): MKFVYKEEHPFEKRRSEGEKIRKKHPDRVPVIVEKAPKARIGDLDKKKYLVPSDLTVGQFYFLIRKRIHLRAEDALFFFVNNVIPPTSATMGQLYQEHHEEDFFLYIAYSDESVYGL

GABARAP (ITC sample) = biological target: T2, GABARAP (ITC sample) (human, UniProt O95166 1-117); experiment: as above
T2 construct: GABARAP, human, purified protein for ITC
T2 sequence (O95166 whole entry): as the sequence (O95166 whole entry Y25H) above, with H25Y counted along it

GABARAPL2 (ITC sample) = biological target: T3, GABARAPL2 (ITC sample) (human, UniProt P60520 1-117); experiment: as above
T3 construct: GABARAPL2, human, purified protein for ITC
T3 sequence (P60520 whole entry): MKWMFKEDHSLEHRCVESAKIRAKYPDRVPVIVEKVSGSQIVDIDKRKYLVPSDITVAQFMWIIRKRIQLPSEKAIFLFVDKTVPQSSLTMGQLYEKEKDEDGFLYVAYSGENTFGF

LC3B H27Y (ITC sample) = LC3B H27Y (ITC sample) (human, UniProt Q9GZQ8 1-120, H27 in LC3B to Y); experiment: as above
[2] = biological target: T4, GABARAP wild type (ITC sample) (human, UniProt O95166 1-117); experiment: ITC; PCM1 LIR peptide 0.4 mM titrated into 0.025 mM LC3 or GABARAP protein in 21 steps; 25 °C; 50 mM Tris-HCl pH 7.4, 100 mM NaCl; one-site binding model
T4 construct: GABARAP, human ATG8 protein; also called GABARAP-wt; GABARAP WT
T4 sequence (O95166 whole entry): as the sequence (O95166 whole entry Y25H) above, with H25Y counted along it

[3] = biological target: T5, GABARAP Y25H mutant (ITC sample) (human, UniProt O95166 1-117, Y25H); experiment: as above
T5 construct: GABARAP, human ATG8 protein, with Y25H
T5 sequence (O95166 whole entry Y25H): as the sequence (O95166 whole entry Y25H) above

[4] = biological target: T6, GABARAPL2 wild type (ITC sample) (human, UniProt P60520 1-117); experiment: as above
T6 construct: GABARAPL2, human ATG8 protein; also called GABARAPL2 WT
T6 sequence (P60520 whole entry): as the sequence (P60520 whole entry) above

[5] = biological target: LC3B H27Y mutant (ITC sample) (human, UniProt Q9GZQ8 1-120, H27Y); experiment: as above
[6] = biological target: LC3B wild type (ITC sample) (human, UniProt Q9GZQ8 1-120); experiment: as above

Binder | Kd (LC3B (ITC sample)) [µM] | binding result [1] | Kd (GABARAP (ITC sample)) [µM] | Kd (GABARAPL2 (ITC sample)) [µM] | binding result (LC3B H27Y (ITC sample)) | Ka [2] [M⁻¹] | stoichiometry N [2] | Ka [3] [M⁻¹] | Kd [3] [µM] | stoichiometry N [3] | Ka [4] [M⁻¹] | stoichiometry N [4] | Ka [5] [M⁻¹] | Kd [5] [µM] | stoichiometry N [5] | Ka [6] [M⁻¹] | stoichiometry N [6]
B1 | 76 | binds | 6.4 | 3.2 | binds |  |  |  |  |  |  |  |  |  |  |  | 
B2 |  |  |  |  |  | 157000 | 0.94 ± 0.04 | 17900 | 56 | 1 | 311000 | 0.98 ± 0.02 | 40200 | 25 | 1 | 13200 | 1
